The data set in a line: protein stability index of a GFP-peptide fusion (yeast GPS) (PSI 1-4); higher = more stable; sorted into four equal gates, so the index is relative within each strain. In short, it runs like this:
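Plasmids isolated from each sorting gate were PCR-amplified and Illumina-sequenced, and barcodes assigned the reads to strains. The gates, four of equal size, were set by GFP/Cherry fluorescence ratio on mid-log cultures in leucine-free medium. These cultures were yeast carrying a pooled library of tiled 17-residue yeast protein peptides fused downstream of GFP on a plasmid that also expresses Cherry. The protein stability index is the sum of every gate's read frequency times its gate number.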

± gives the uncertainty stated by the source.

As for VCQVTKFGLLLQVSAQE [ECM29], the protein stability index reads like this: (doa10∆) 2.15 ± 0.061; (pdr5∆) 2.15 ± 0.044; (san1∆) 2.62 ± 0.067; (ubr1∆) 1.9 ± 0.04.

For the sequence NSNGIAMASLYLTGGQQ [SMD1], the protein stability index reads like this: (doa10∆) 2.44 ± 0.073; (pdr5∆) 2.66 ± 0.06; (san1∆) 2.63 ± 0.063; (ubr1∆) 2.59 ± 0.059.

With RIENPEKYAAAAPAATS [RPP0], the protein stability index is 2.95 ± 0.085 (doa10∆), 3.22 ± 0.11 (pdr5∆), 2.71 ± 0.094 (san1∆) and 3.16 ± 0.057 (ubr1∆).

On to TVLESLGRLNKLRKIAI [LIN1], for which the protein stability index runs as follows: (doa10∆) 2.66 ± 0.057; (pdr5∆) 2.69 ± 0.049; (san1∆) 2.66 ± 0.058; (ubr1∆) 2.95 ± 0.035.

For the sequence YTPEESAWIWPMDEETK [RPC25], the protein stability index (doa10∆) is 2.34 ± 0.068, the protein stability index (pdr5∆) was found to be 2.62 ± 0.074, the protein stability index (san1∆) came to 2.54 ± 0.086 and the protein stability index (ubr1∆) came out at 2.65 ± 0.098.

For RNFSLAIIDKNTGLTFK [PRE4], the protein stability index by setting is: (doa10∆) 3.14 ± 0.068; (pdr5∆) 3.07 ± 0.071; (san1∆) 3.14 ± 0.043; (ubr1∆) 3.18 ± 0.058.

TRLWGSVYYHKGNFRTK [SNU114] displayed a protein stability index (doa10∆) of 3.35 ± 0.064, a protein stability index (pdr5∆) of 3.46 ± 0.093, a protein stability index (san1∆) of 3.35 ± 0.06 and a protein stability index (ubr1∆) of 3.32 ± 0.082.

Turning to DNDIMNLGSRTKNNTQA [SSN3], the protein stability index by setting is: (doa10∆) 2.91 ± 0.038; (pdr5∆) 2.92 ± 0.038; (san1∆) 2.76 ± 0.028; (ubr1∆) 2.977 ± 0.029.

On to MTTPQNISSSQQLLPAP [DSN1], for which the protein stability index is, setting by setting: (doa10∆) 2.82 ± 0.049; (pdr5∆) 2.89 ± 0.04; (san1∆) 2.74 ± 0.036; (ubr1∆) 2.81 ± 0.038.

For the sequence KKRIRLPSEERIQKIIS [YIL149C/MLP2], the protein stability index is, setting by setting: (doa10∆) 2.66 ± 0.074; (pdr5∆) 2.49 ± 0.062; (san1∆) 2.71 ± 0.081; (ubr1∆) 2.72 ± 0.04.

Turning to LQPLEEGLIIDTDKLPI [SIN4], the protein stability index turned out to be 2.73 ± 0.097 (doa10∆), 2.79 ± 0.074 (pdr5∆), 2.75 ± 0.066 (san1∆) and 2.96 ± 0.061 (ubr1∆).

For LHYDKDYNLRIYCYFLI [SSN8], the protein stability index runs as follows: (doa10∆) 1.28 ± 0.046; (pdr5∆) 1.37 ± 0.045; (san1∆) 1.37 ± 0.078; (ubr1∆) 1.53 ± 0.046.

VAHSSRLANLIDYKLRV [SMB1] showed a protein stability index (doa10∆) of 3.58 ± 0.15, a protein stability index (pdr5∆) of 3.26 ± 0.15, a protein stability index (san1∆) of 2.5 ± 0.2 and a protein stability index (ubr1∆) of 3.17 ± 0.066.

With HGAASFLKERLMEASDA [RPB2], the protein stability index runs as follows: (doa10∆) 1.37 ± 0.15; (pdr5∆) 1.48 ± 0.09; (san1∆) 1.1 ± 0.18; (ubr1∆) 1.03 ± 0.087.

For PSPYKTTVYRYSAAKKI [YAR002W/NUP60], the protein stability index reads like this: (doa10∆) 1.69 ± 0.051; (pdr5∆) 1.98 ± 0.05; (san1∆) 1.49 ± 0.069; (ubr1∆) 1.67 ± 0.042.

Regarding AVYFADTSGLKISNSEF [SIN4], the protein stability index is, setting by setting: (doa10∆) 2.96 ± 0.072; (pdr5∆) 3.32 ± 0.08; (san1∆) 3.1 ± 0.049; (ubr1∆) 3.18 ± 0.063.

For the sequence YWYEQDSAKEWPQSKNC [RPB3], the protein stability index reads like this: (doa10∆) 3.4 ± 0.12; (pdr5∆) 3.3 ± 0.13; (san1∆) 2.98 ± 0.13; (ubr1∆) 3.43 ± 0.22.

Regarding KILNLEKPLILADYIVE [NUT1], the protein stability index by setting is: (doa10∆) 1.58 ± 0.1; (pdr5∆) 1.56 ± 0.061; (san1∆) 1.22 ± 0.18; (ubr1∆) 1.3 ± 0.07.

As to QQYVAAGDLRALDTVTN [FAS1], the protein stability index came out at 2.88 ± 0.087 (doa10∆), 2.87 ± 0.081 (pdr5∆), 2.92 ± 0.085 (san1∆) and 2.79 ± 0.13 (ubr1∆).

Regarding RNVNWIERLTKRQFNNS [ITC1], the protein stability index is 3.05 ± 0.12 (doa10∆), 3.36 ± 0.15 (pdr5∆), 3.05 ± 0.13 (san1∆) and 3.41 ± 0.12 (ubr1∆).

In turn, KSLPLLITVMEKSPDPT [YCS4] displayed a protein stability index (doa10∆) of 1.91 ± 0.045, a protein stability index (pdr5∆) of 1.87 ± 0.043, a protein stability index (san1∆) of 1.92 ± 0.062 and a protein stability index (ubr1∆) of 1.97 ± 0.034.

Consider AVDAKQLAQIRQFLKAN [YML103C/NUP188], for which the protein stability index came out at 2.58 ± 0.12 (doa10∆), 3.06 ± 0.079 (pdr5∆), 2.96 ± 0.093 (san1∆) and 2.78 ± 0.067 (ubr1∆).

In the case of ERGGKFHESGSQYSTMV [RGR1], the protein stability index was found to be 3.36 ± 0.12 (doa10∆), 3.45 ± 0.12 (pdr5∆), 3.44 ± 0.25 (san1∆) and 3.3 ± 0.14 (ubr1∆).

As to MQAIADSFSVPNRLVKE [PRE2], the protein stability index was determined as 2.94 ± 0.14 (doa10∆), 3.02 ± 0.24 (pdr5∆) and 3.03 ± 0.14 (san1∆).

For FLDSVHKQGSSYVAVLG [POP7], the protein stability index reads like this: (doa10∆) 2.6 ± 0.045; (pdr5∆) 2.17 ± 0.037; (san1∆) 2.38 ± 0.057; (ubr1∆) 2.51 ± 0.033.

Turning to TYAAEIAHNISAKNRVV [RPL32], the protein stability index by setting is: (doa10∆) 2.07 ± 0.043; (pdr5∆) 2.27 ± 0.052; (san1∆) 2.28 ± 0.068; (ubr1∆) 2.13 ± 0.039.

The values above are taken from the supplement of paper PMC9732359.
